Protein stability index data for 67 sequences are collected here from the supplement of paper PMC10724198.

Series [1] has as its system Saccharomyces cerevisiae. In words: protein stability index of tFT-peptide fusion in wild type (PSI (0-1 scale)); higher = more stable (slower turnover). Conditions: genetic background: wild type. The method, then: (§1)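 MPS profiling in S. cerevisiae of two library types built from selected 12-aa C-degron peptides (IN1, IN2, LN1, LN3, VN2, R1-R5, W1-W3, Atg1 and Rpa12 C-termini): saturation mutagenesis libraries and C-terminal +1 capping libraries (13 aa). Each peptide is fused to the C-terminus of a sfGFP-mCherry timer, after a GGGS linker. Cells are FACS-sorted into 8 mCherry/sfGFP bins and sequenced. PSI runs from 0 (unstable) to 1 (stable), measured once in wild type and in the das1Δ or doa10Δ background.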

The subject of series [2] is Saccharomyces cerevisiae. The series is described as follows: protein stability index of tFT-peptide fusion in deletion strain of DAS1 (PSI (0-1 scale)); higher = more stable (slower turnover). Here is the method:
as §1
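Throughout, for protein stability index of tFT-peptide fusion in deletion strain of DAS1: PSI is a weighted mean of each variant's read distribution over the sorted stability bins, computed only for variants having over 10 reads in total.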
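Throughout, for protein stability index of tFT-peptide fusion in wild type: PSI derived as read-weighted mean over the 8 sorting bins, only variants exceeding 10 total reads kept, mCherry placed adjacent to the peptide and sfGFP distal.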

Take PSFAASFWRVVG: the protein stability index in the series with Saccharomyces cerevisiae [1] was 0.148; in the series with Saccharomyces cerevisiae [2] it was 0.703.
For PSLAAPFWRVVG, in that order: 0.182 and 0.696.
In the case of PSLAAQFWRVVG, the protein stability index is 0.14 with Saccharomyces cerevisiae [1] and 0.696 in the series on Saccharomyces cerevisiae [2].
In the same order, the values of PSLAASFNRVVG are 0.643 and 0.673.
In the case of PSLAASFWFVVG, the results for the protein stability index with Saccharomyces cerevisiae [1] and in the series with Saccharomyces cerevisiae [2] were 0.658 and 0.666, respectively.
For PSLAASFWKVVG, in that order: 0.31 and 0.674.
For PSLAASFWRIVG, in that order: 0.143 and 0.675.
For PSLAASFWRQVG, in that order: 0.146 and 0.653.
Consider PSLAASFWRTVG, for which the values for the protein stability index in the series on Saccharomyces cerevisiae [1] and with Saccharomyces cerevisiae [2] were 0.172 and 0.698, respectively.
In the same order, the values of PSLAASFWRVEG are 0.672 and 0.687.
In the same order, the values of PSLAASFWRVHG are 0.193 and 0.686.
For PSLAASFWRVVGA, in that order: 0.545 and 0.681.
PSLAASFWRVVH: the figures for the protein stability index in the series with Saccharomyces cerevisiae [1] and with Saccharomyces cerevisiae [2] were 0.448 and 0.695, respectively.
In the same order, the values of PSLAASFWRVVI are 0.263 and 0.716.
For PSLAASFWRWVG, in that order: 0.145 and 0.706.
As for PSLAASFWSVVG, the protein stability index in the series with Saccharomyces cerevisiae [1] was 0.694; in the series on Saccharomyces cerevisiae [2], 0.709.
In the same order, the values of PSLAASFWWVVG are 0.582 and 0.718.
For PSLAASYWRVVG, in that order: 0.157 and 0.672.
In the same order, the values of PSLAFSFWRVVG are 0.111 and 0.676.
For PSLCASFWRVVG, the protein stability index in the series on Saccharomyces cerevisiae [1] was 0.129; in the series with Saccharomyces cerevisiae [2], 0.68.
In the same order, the values of PSLLASFWRVVG are 0.145 and 0.695.
For PSMAASFWRVVG, in that order: 0.126 and 0.699.
For PSQAASFWRVVG, in that order: 0.161 and 0.695.
As for PSYAASFWRVVG, the protein stability index in the series with Saccharomyces cerevisiae [1] amounted to 0.131; in the series on Saccharomyces cerevisiae [2], 0.715.
For RDKRNHLIKLLN, in that order: 0.1 and 0.612.
For RKILRQKMNHQN, in that order: 0.162 and 0.69.
For RLIKPLPVQFLN, in that order: 0.0432 and 0.627.
As for RLIQPLIVQFLN, the protein stability index with Saccharomyces cerevisiae [1] is 0.0468; with Saccharomyces cerevisiae [2], 0.542.
For RLIQPLMVQFLN, in that order: 0.0988 and 0.598.
In the same order, the values of RLIQPLPEQFLN are 0.29 and 0.592.
For RLIQPLPVDFLN, in that order: 0.716 and 0.624.
On to RLIQPLPVIFLN, for which the protein stability index in the series on Saccharomyces cerevisiae [1] turned out to be 0.138; in the series with Saccharomyces cerevisiae [2], 0.548.
For RLIQPLPVNFLN, in that order: 0.0915 and 0.579.
In the same order, the values of RLIQPLPVPFLN are 0.313 and 0.607.
In the same order, the values of RLIQPLPVQFLG are 0.35 and 0.6.
Turning to RLIQPLPVQFLH, the protein stability index in the series with Saccharomyces cerevisiae [1] was 0.301; in the series on Saccharomyces cerevisiae [2], 0.582.
On to RLIQPLPVQFLK, for which the protein stability index in the series with Saccharomyces cerevisiae [1] amounted to 0.613; in the series with Saccharomyces cerevisiae [2], 0.881.
On to RLIQPLPVQFLM, for which the protein stability index in the series with Saccharomyces cerevisiae [1] stood at 0.13; with Saccharomyces cerevisiae [2] it was 0.595.
In the same order, the values of RLIQPLPVQFLNA are 0.545 and 0.612.
For RLIQPLPVQFLNY, in that order: 0.433 and 0.641.
In the same order, the values of RLIQPLPVQKLN are 0.0688 and 0.809.
With RLIQPNPVQFLN, the values for the protein stability index with Saccharomyces cerevisiae [1] and in the series with Saccharomyces cerevisiae [2] were 0.0748 and 0.576, respectively.
For RLITPLPVQFLN, the protein stability index is 0.0429 in the series on Saccharomyces cerevisiae [1] and 0.605 with Saccharomyces cerevisiae [2].
In the same order, the values of RMIQPLPVQFLN are 0.045 and 0.571.
In the case of RTSCGYKFRTNN, the protein stability index in the series on Saccharomyces cerevisiae [1] came to 0.188; in the series on Saccharomyces cerevisiae [2], 0.685.
For SLIQPLPVQFLN, in that order: 0.0779 and 0.618.
For TRGAVGGWRLVG, in that order: 0.162 and 0.68.
For VPGAVGGWRLVG, the protein stability index amounted to 0.139 in the series with Saccharomyces cerevisiae [1] and 0.667 with Saccharomyces cerevisiae [2].
In the same order, the values of VRGAVGGIRLVG are 0.589 and 0.682.
Consider VRGAVGGRRLVG, for which the protein stability index was 0.641 with Saccharomyces cerevisiae [1] and 0.675 in the series on Saccharomyces cerevisiae [2].
In the case of VRGAVGGWELVG, the protein stability index with Saccharomyces cerevisiae [1] came out at 0.551; in the series on Saccharomyces cerevisiae [2], 0.63.
For VRGAVGGWRLDG, in that order: 0.648 and 0.691.
In the same order, the values of VRGAVGGWRLVA are 0.151 and 0.677.
For VRGAVGGWRLVD, in that order: 0.615 and 0.684.
Take VRGAVGGWRLVGN: the protein stability index in the series on Saccharomyces cerevisiae [1] worked out at 0.639; in the series with Saccharomyces cerevisiae [2] it was 0.67.
For VRGAVGGWRLVGR, in that order: 0.676 and 0.674.
In the case of VRGAVGGWRLVH, the protein stability index in the series with Saccharomyces cerevisiae [1] was 0.233; with Saccharomyces cerevisiae [2] it was 0.666.
For VRGAVGGWRRVG, in that order: 0.163 and 0.67.
For VRGAVGGWRSVG, in that order: 0.342 and 0.664.
In the same order, the values of VRGAVGGWYLVG are 0.603 and 0.691.
With VRGAVGQWRLVG, the protein stability index stood at 0.147 in the series on Saccharomyces cerevisiae [1] and 0.663 in the series on Saccharomyces cerevisiae [2].
In the same order, the values of VRGAVHGWRLVG are 0.155 and 0.679.
For VRGAVSGWRLVG, in that order: 0.145 and 0.683.
In the same order, the values of VRGEVGGWRLVG are 0.119 and 0.606.
VRGFVGGWRLVG: the protein stability index with Saccharomyces cerevisiae [1] came to 0.145; with Saccharomyces cerevisiae [2], 0.691.
For VRGNVGGWRLVG, in that order: 0.109 and 0.667.
For VRGPVGGWRLVG, in that order: 0.181 and 0.682.
